Among the data in patent CN116970083A (SHANGHAI UNICAR THERAPY BIO MEDICINE TECH CO LTD, dated 2023) are binding result and MFI (Median fluorescence intensity) values, retold here.

The target of assay [1] is T1, Human TROP-2/TACSTD2 Protein, His Tag (带有His标签的人滋养层细胞表面抗原2(Trop2)胞外段蛋白) (human, UniProt P09758 27-274).
T1 construct: extracellular domain; Bought protein; also called Trop2-His; Trop2抗原; not shown: His tag
T1 sequence (looked up): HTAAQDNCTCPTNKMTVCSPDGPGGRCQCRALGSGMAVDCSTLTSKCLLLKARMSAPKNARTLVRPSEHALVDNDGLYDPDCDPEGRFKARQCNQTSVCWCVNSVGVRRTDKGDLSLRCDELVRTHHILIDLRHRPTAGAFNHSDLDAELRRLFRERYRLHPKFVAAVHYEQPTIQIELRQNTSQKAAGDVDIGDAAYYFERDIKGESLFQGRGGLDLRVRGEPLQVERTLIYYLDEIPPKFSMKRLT
The assay is described as follows: phage ELISA, Trop2-His coated at 1ug/ml, anti-M13-HRP, OD450.

Assay [2] deals with T1, Human TROP-2/TACSTD2 Protein, His Tag …. Nature of the assay: ELISA, Trop2-His coated at 1ug/ml, antibody diluted 3.3-fold from 5ug/ml, anti-human IgG-Fc HRP. A general note: ELISA stands for enzyme-linked immunosorbent assay.
In assay [3] the target is Trop2 on the surface of tumour cell lines (H1975, MDA-MB-231, Bxpc3, T24, PC-9) (UniProt P09758). Nature of the assay: flow cytometry on H1975 cells, antibody 5ug/ml, anti-Fc PE; blank cells without antibody MFI 621. (A flow cytometer gives signals particle by particle.)
The target is the same in assay [4]. Nature of the assay: flow cytometry on MDA-MB-231 cells, antibody 5ug/ml, anti-Fc PE; blank cells without antibody MFI 938.
For assay [5] the target is unchanged. Nature of the assay: flow cytometry on Bxpc3 cells, antibody 5ug/ml, anti-Fc PE; blank cells without antibody MFI 557.

B1: 抗Trop2阳性克隆3 (T3), scFv displayed on phage (scFv)
scFv: DIQMTQSPSTLSASVGDRVTITCRASQSISSWLAWYQQKPGKAPKLLIYKASSLESGVPPRFSGSGSGAEFTLTISSLQPDDFATYYCQQYNSYPLTFGGGTKVEVKGGGGSGGGGSGGGGSEVQLVQSGGGLVQPGGSLRLSCEDSGFTFSSYWMSWVRQAPGKGLEWVSSISSSSSYIYYADSVKGRFTISRDNAKNSLYLQMNSLRGEDTAVYYCAREQSSSGFDYWGQGTLVTVSS
notes: Tested as phage supernatant (scFv on M13 phage); also called T3单克隆; T3抗Trop2 scFv
Turning to B1, in assay [1], the binding result was “binds”.

B2: T3单克隆抗体 (T3抗Trop2单克隆抗体) (antibody, human IgG1, kappa, V domains shown)
VH: EVQLVQSGGGLVQPGGSLRLSCEDSGFTFSSYWMSWVRQAPGKGLEWVSSISSSSSYIYYADSVKGRFTISRDNAKNSLYLQMNSLRGEDTAVYYCAREQSSSGFDYWGQGTLVTVSS
VL: DIQMTQSPSTLSASVGDRVTITCRASQSISSWLAWYQQKPGKAPKLLIYKASSLESGVPPRFSGSGSGAEFTLTISSLQPDDFATYYCQQYNSYPLTFGGGTKVEVKR
notes: also called Trop2抗体
In the case of B2, the binding result in assay [2] is given as “binds”. Further, the MFI (Median fluorescence intensity) in assay [3] turned out to be 65600; in assay [4], 3150; in assay [5] it was 174000.
